Assays:
[1] = substrate: Nc1ncnc2c1ncn2[C@@H]1O[C@H](COP(=O)(O)OP(=O)(O)OP(=O)(O)O)[C@@H](O)[C@H]1O; assay: Binding affinity to CHK1
[2] = substrate: Nc1ncnc2c1ncn2[C@@H]1O[C@H](COP(=O)(O)OP(=O)(O)OP(=O)(O)O)[C@@H](O)[C@H]1O; assay: Binding affinity to aurora B
[3] = substrate: Nc1ncnc2c1ncn2[C@@H]1O[C@H](COP(=O)(O)OP(=O)(O)OP(=O)(O)O)[C@@H](O)[C@H]1O; assay: Binding affinity to Akt2

B1: Serine/threonine-protein kinase Chk1 (Homo sapiens), O14757 (protein)
chain: MAVPFVEDWDLVQTLGEGAYGEVQLAVNRVTEEAVAVKIVDMKRAVDCPENIKKEICINKMLNHENVVKFYGHRREGNIQYLFLEYCSGGELFDRIEPDIGMPEPDAQRFFHQLMAGVVYLHGIGITHRDIKPENLLLDERDNLKISDFGLATVFRYNNRERLLNKMCGTLPYVAPELLKRREFHAEPVDVWSCGIVLTAMLAGELPWDQPSDSCQEYSDWKEKKTYLNPWKKIDSAPLALLHKILVENPSARITIPDIKKDRWYNKPLKKGAKRPRVTSGGVSESPSGFSKHIQSNLDFSPVNSASSEENVKYSSSQPEPRTGLSLWDTSPSYIDKLVQGISFSQPTCPDHMLLNSQLLGTPGSSQNPWQRLVKRMTRFFTKLDADKSYQCLKETCEKLGYQWKKSCMNQVTISTTDRRNNKLIFKVNLLEMDDKILVDFRLSKGDGLEFKRHFLKIKGKLIDIVSSQKIWLPAT
B1 was tested. Which Km [1] did it give?
Its Km is 1.4 µM.

B2: Aurora kinase B (Homo sapiens), Q96GD4 (protein)
chain: MAQKENSYPWPYGRQTAPSGLSTLPQRVLRKEPVTPSALVLMSRSNVQPTAAPGQKVMENSSGTPDILTRHFTIDDFEIGRPLGKGKFGNVYLAREKKSHFIVALKVLFKSQIEKEGVEHQLRREIEIQAHLHHPNILRLYNYFYDRRRIYLILEYAPRGELYKELQKSCTFDEQRTATIMEELADALMYCHGKKVIHRDIKPENLLLGLKGELKIADFGWSVHAPSLRRKTMCGTLDYLPPEMIEGRMHNEKVDLWCIGVLCYELLVGNPPFESASHNETYRRIVKVDLKFPASVPMGAQDLISKLLRHNPSERLPLAQVSAHPWVRANSRRVLPPSALQSVA
With B2 as the protein, how does the Km [2] read?
Its Km is 34 µM.

B3: RAC-beta serine/threonine-protein kinase (Homo sapiens), P31751 (protein)
chain: MNEVSVIKEGWLHKRGEYIKTWRPRYFLLKSDGSFIGYKERPEAPDQTLPPLNNFSVAECQLMKTERPRPNTFVIRCLQWTTVIERTFHVDSPDEREEWMRAIQMVANSLKQRAPGEDPMDYKCGSPSDSSTTEEMEVAVSKARAKVTMNDFDYLKLLGKGTFGKVILVREKATGRYYAMKILRKEVIIAKDEVAHTVTESRVLQNTRHPFLTALKYAFQTHDRLCFVMEYANGGELFFHLSRERVFTEERARFYGAEIVSALEYLHSRDVVYRDIKLENLMLDKDGHIKITDFGLCKEGISDGATMKTFCGTPEYLAPEVLEDNDYGRAVDWWGLGVVMYEMMCGRLPFYNQDHERLFELILMEEIRFPRTLSPEAKSLLAGLLKKDPKQRLGGGPSDAKEVMEHRFFLSINWQDVVQKKLLPPFKPQVTSEVDTRYFDDEFTAQSITITPPDRYDSLGLLELDQRTHFPQFSYSASIRE
B3 was tested. Which Km [3] did it give?
Its Km is 254 µM.
